For test [1], the target named is Flag-gp130-RTp51 fusion protein (encoded by pMG2-RTp51) (human; HIV1) (UniProt P40189). The experiment in a line: cell-based or functional assay.
The target in test [2] is T1, HA-Tyk2(C)-p53(N) fusion protein (encoded by pMet7-HA-Tyk2(C)-p53(N)) (human, UniProt P04637 2-72).
T1 construct: range 2-72; Expressed in HEK293-T cells; not shown: HA tag
Description: kinase-substrate sensor assay, rPAPI-luciferase reporter in HEK293-T cells.

The molecule “HA-Tyk2(R1027A)-RTp66 fusion protein (encoded by pMet7-HA-Tyk2(R1027A)-RTp66)” gave an imidazole-dependent induction of the luciferase signal in test [1] of 36 fold.

B1: unfused gp130 receptor fragment (encoded by pMG1) (other, human, UniProt P40189 760-918, looked up)
chain: STVVHSGYRHQVPSVQVFSRSESTQPLLDSEERPEDLQLVDHVDGGDGILPRQQYFKQNCSQHESSPDISHFERSKQVSSVNEEDFVRLKQQISDHISQSCGSGQMKMFQEVSAADAFGPGTEGQVERFETVGMEAATDEGMPKSYLPQTVRQGGYMPQ
notes: Background control, expressed in HEK293-T cells; also called unfused gp130 fragment
For B1, the binding result in test [2] was “no binding”.
